In this test the target is PDZ1/2 domain, P78352.

We go through 1 molecule from patent publication US20210000909A1.

Sequence of PDZ1/2 domain, P78352 (P78352 61-249 limits assumed): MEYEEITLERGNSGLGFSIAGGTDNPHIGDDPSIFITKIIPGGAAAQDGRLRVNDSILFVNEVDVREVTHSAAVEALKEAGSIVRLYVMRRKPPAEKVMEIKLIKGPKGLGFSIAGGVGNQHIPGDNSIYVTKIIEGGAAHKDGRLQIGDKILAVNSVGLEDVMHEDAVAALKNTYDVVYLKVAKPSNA

Broadly, the Kd is the concentration at which binding is half-saturated. The molecule YGRKKRRQRRRYEKLSSIESDV (modifications not checked) [chimeric peptide YE-NA-1] gave a Kd of 54.4 nM.
